According to publication PMC4253547 (Leukemia research, 2014):
Residue numbers refer to the chain shown, from its start. Names and notes keep the numbering of the source. Where no end group is shown, it is not given here.

T1: MBP-AF9 (WT) (UniProt P42568 1-568)
T1 sequence (looked up): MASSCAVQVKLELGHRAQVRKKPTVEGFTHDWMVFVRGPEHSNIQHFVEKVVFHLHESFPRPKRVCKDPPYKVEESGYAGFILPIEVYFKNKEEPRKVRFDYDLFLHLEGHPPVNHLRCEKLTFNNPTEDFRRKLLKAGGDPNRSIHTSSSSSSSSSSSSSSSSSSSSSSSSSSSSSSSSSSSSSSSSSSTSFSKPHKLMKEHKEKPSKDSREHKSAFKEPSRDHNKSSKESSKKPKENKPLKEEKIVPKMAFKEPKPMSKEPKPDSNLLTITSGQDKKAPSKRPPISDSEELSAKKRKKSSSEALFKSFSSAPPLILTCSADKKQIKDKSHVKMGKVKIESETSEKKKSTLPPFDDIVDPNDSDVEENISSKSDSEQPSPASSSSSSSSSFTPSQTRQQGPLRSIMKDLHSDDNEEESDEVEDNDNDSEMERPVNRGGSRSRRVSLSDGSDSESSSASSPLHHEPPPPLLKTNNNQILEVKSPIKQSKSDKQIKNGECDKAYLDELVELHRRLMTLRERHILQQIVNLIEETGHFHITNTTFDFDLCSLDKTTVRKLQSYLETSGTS

T2: MBP-AF9 (D544R) (UniProt P42568 1-568, D544R)
T2 sequence (looked up): T1 sequence (looked up) with D544R

B1: Fluorescein AFF4 (K717D) peptide (peptide)
chain: LIVDIDLNLLTRIP
modifications: also: fluorescein (position not given here)
B2: Fluorescein AFF4 (WT) peptide (peptide)
chain: LIVKIDLNLLTRIP
modifications: also: fluorescein (position not given here)

How the values were obtained:
[1] = molecular target: MLLT3 (Homo sapiens) (UniProt P42568); details: cited from earlier work
[2] = molecular target: T1, MBP-AF9 (WT); assay: other fluorescence titration
[3] = molecular target: T2, MBP-AF9 (D544R); assay: other fluorescence titration

Row | Molecule | Kd [1] [pM] | Kd [2] [pM] | Kd [3] [pM]
1 | AFF1 (from UniProt P51825) | 170 |  | 
2 | B1 |  | 37400 | 210
3 | B2 |  | 200 | 
